Several values for one entry are separate records, joined by “and”; a condition that tells them apart may be missing. Equal values may be shown once.

The target of this assay is Recombinant human SP-A1 (SP-A1^hyp) (human) (UniProt Q8IWL2). Nature of the assay: native gel or EMSA + AUC. A general note: Mobility shift assays separate free from complexed probe on a gel.

Usually stoichiometry N stands for a count of units in the complex or per binding partner. For “Recombinant human SP-A1 (SP-A1^hyp) (from UniProt Q8IWL2 21-248) (natural protein)”, the stoichiometry N was 3 and 6.

These data come from publication PMC5737834.
